Experimental findings from patent US20220220218A1 (JIANGSU HENGRUI MEDICINE, published 2022) are described below.

Numbering of substitutions follows the chain as printed.

Experiment [1] addresses T1, human CD73 (huCD73) protein, antigen of the Biacore assay (human, UniProt P21589 27-547, limits assumed).
T1 construct: also called human CD73 antigen
T1 sequence (looked up): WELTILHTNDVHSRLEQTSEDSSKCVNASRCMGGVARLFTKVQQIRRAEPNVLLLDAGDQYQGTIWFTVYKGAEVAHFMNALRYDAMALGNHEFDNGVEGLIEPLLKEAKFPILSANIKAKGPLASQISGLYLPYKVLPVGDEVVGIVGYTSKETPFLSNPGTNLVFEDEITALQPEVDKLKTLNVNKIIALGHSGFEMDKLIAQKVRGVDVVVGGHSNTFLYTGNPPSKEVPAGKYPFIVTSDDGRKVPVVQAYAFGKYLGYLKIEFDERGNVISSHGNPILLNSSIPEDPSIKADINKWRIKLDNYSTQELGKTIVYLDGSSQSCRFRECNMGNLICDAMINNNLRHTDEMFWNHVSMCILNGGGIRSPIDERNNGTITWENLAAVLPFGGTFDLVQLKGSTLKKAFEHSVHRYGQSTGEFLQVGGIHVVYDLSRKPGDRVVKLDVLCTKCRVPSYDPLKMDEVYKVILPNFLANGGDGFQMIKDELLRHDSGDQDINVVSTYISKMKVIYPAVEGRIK
Description: SPR Biacore T200; antibody captured on Protein A chip, CD73 in flow; 1:1 Langmuir. In short, it runs like this:
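Antibody was captured on a Protein A chip and human or cynomolgus CD73 antigen was flowed over it in HBS-EP running buffer. Surfaces were regenerated with glycine-HCl pH 1.5, and affinities came from a 1:1 Langmuir fit.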
A general note: Surface plasmon resonance follows binding to a sensor surface in real time, without labels.

For experiment [2], the target named is T2, human CD73 on tumor cell line MDA-MB-231 that highly expresses human CD73 (human, UniProt P21589 27-549).
T2 construct: whole, on cells; Cells were fixed on the plate for the cell ELISA and live for the enzyme assay; also called MDA-MB-231 cells
T2 sequence (looked up): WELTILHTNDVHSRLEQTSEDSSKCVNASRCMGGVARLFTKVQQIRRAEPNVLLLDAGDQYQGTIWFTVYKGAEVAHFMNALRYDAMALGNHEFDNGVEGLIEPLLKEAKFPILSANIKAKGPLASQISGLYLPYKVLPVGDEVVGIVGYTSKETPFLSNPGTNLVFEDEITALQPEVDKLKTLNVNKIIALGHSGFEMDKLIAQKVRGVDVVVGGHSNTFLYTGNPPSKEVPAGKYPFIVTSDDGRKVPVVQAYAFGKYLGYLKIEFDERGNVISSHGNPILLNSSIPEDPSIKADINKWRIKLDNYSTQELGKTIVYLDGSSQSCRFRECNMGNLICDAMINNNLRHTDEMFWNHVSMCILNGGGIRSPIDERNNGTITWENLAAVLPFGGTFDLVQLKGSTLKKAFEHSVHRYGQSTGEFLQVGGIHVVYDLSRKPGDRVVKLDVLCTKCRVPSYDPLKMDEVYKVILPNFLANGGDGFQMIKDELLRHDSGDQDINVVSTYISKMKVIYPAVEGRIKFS
In words: cell ELISA on fixed MDA-MB-231 cells. The procedure: The MDA-MB-231 cells were directly coated onto a 96-well microtiter plate. The signal strength after the addition of the antibody was used to determine the binding activity of the antibody to MDA-MB-231 cells. The specific experimental procedures were as follows:
MDA-MB-231 cells (ATCC, Cat No HTB-26) were seeded in the 96-well plate (Corning, Cat No. CLS3599-100EA) at a density of 6×10⁵/ml, 100 μl/well, and cultured overnight. The supernatant was discarded, the plate was washed with PBS for three times, 100 μl/well of cell immune fixed solution (Beyotime, Cat No. P0098) was added and fixed for half an hour at room temperature, and the plate washed with PBS for four times. The liquid was discarded, 250 μl/well blocking solution (5% skim milk diluted in PBS) was added, and incubated in an incubator at 37° C. for 3 hours. After the blocking was finished, the blocking solution was discarded, the plate was washed for 5 times with PBST buffer, 50 μl/well of various concentrations of each of the test antibodies were added, and incubated in an incubator at 37° C. for 1 hour. After the incubation was finished, the plate was washed for 5 times with PBST, 50 μl/well of HRP-labeled goat anti-mouse secondary antibody (Jackson Immuno Research, Cat No. 115-035-003) or goat anti-human secondary antibody (Jackson Immuno Research, Cat No. 109-035-003) diluted with sample diluent was added, and incubated at 37° C. for 1 hour. The plate was washed for 5 times with PBST, 50 μl/well of TMB chromogenic substrate (KPL, Cat No. 52-00-03) was added, incubated at room temperature for 5-15 min, and 50 μl/well of 1M H₂SO₄ was added to stop the reaction. The absorbance value was read by a microplate reader (Molecular Devices, VERSA max) at a wavelength of 450 nm, and the data was analyzed with GraphPad Prism 5. The binding of anti-CD73 antibody to MDA-MB-231 cells over-expressing CD73 was calculated as EC50 value.
A general note: In an ELISA, binding on a coated surface is turned into a signal by an enzyme label.

Experiment [3] concerns the target T2, human CD73 on tumor cell line …. Description: cell-based or functional assay.

B1: Hab110.21 (antibody, human IgG1, kappa, V domains shown)
VH: EVQLVQSGAEVKKPGASVKVSCKASGYTFTSYTMHWVRQAPGQRLEWMGYINPNSFYIEYNQKFKDRVTITRDTSASTAYMELSSLRSEDTAVYYCARGDYDLFYDMDNWGQGTTVTVSS
VL: DIQMTQSPSSLSASVGDRVTITCRASQDIGNSLNWLQQKPGKAIKRLIYATFRLDSGVPSRFSGSRSGTEYTLTISSLQPEDFATYYCQQYASFPWTFGGGTKVEIKR
notes: also called humanized antibody of mab110
In general, Kd refers to a measure of binding affinity in units of concentration. High values mean a looser complex, low ones a tighter complex. One may read the koff as the rate constant with which the complex falls apart. A lower koff goes with a long-lived complex. One may read the kon as the second-order rate constant of association. Read a high kon as faster complex formation. Usually EC50 stands for the concentration that produces a half-maximal response. Low values mean higher potency in that assay, high ones lower potency in that assay. Consider B1, for which, in experiment [1], the Kd came out at 94.4 pM, the koff came to 6.14e-05 s⁻¹ and the on-rate constant (kon) was found to be 650000 M⁻¹ s⁻¹. The molecule also returned an EC50 in experiment [2] of 56 pM. The “IC50 (nM) in the assay showing the inhibition of enzyme activity in MDA-MB-231 cell” value in experiment [3] came to 0.329 nM.

B2: Hab127.31d (antibody, human IgG1, kappa, V domains shown)
VH: EVQLVQSGAEVKKPGASVKVSCKASGYTFTAYFMNWVRQAPGQGLEWMGRIYHNKGDTFYSQKFKGRVTMTVDKSTSTVYMELSSLRSEDTAVYYCATSYVGDWGQGTTVTVSS
VL: B1 VL with N31D, K42G, I44L, F52S, R53S, R66G, Q89L
notes: also called humanized antibody of mab127
As to B2, in experiment [1], the Kd was 257 pM, the koff stood at 5.81e-05 s⁻¹ and the kon amounted to 226000 M⁻¹ s⁻¹. Besides, the response in experiment [2] was half-maximal at 72 pM (EC50). Also, in experiment [3], the “IC50 (nM) in the assay showing the inhibition of enzyme activity in MDA-MB-231 cell” value was 0.505 nM.

B3: Hab108.64 (antibody, human IgG1, kappa, V domains shown)
VH: EVTLKQSGPGLVKPTETLTLTCTVSGFSLSSYGIQWVRQPPGKGLEWLGVIWSGGSADYNAAFISRLTISKDTSKSQVVLTMTNMDPVDTATYYCAGQYGSVWGQGTLVTVSS
VL: DIQMTQSPSSLSASVGDRVTITCRASQDIGDRLNWLQQKPGGAIKRLIYATSSLDSGVPKRFSGSGSGTEYTLTISSLQPEDFATYYCLQYAGSWTFGGGTKVEIKR
notes: also called humanized antibody of mab108
In experiment [1], B3 returned a Kd of 412 pM, a koff of 9.24e-05 s⁻¹ and a kon of 224000 M⁻¹ s⁻¹. The EC50 in experiment [2] stood at 62 pM. Further, the “IC50 (nM) in the assay showing the inhibition of enzyme activity in MDA-MB-231 cell” value in experiment [3] worked out at 0.53 nM.

B4: CPX006 (antibody CPX-006 disclosed in patent application WO2018013611) (antibody, V domains shown)
VH: QVQLVQSGAEVEKPGASVKVSCKASGYTFTSYWITWVRQAPGQGLEWMGDIYPGSGNTNYNEKFKTRVTITADKSTSTAYMELSSLRSEDTAVYYCAKEGGLTTEDYALDYWGQGTLVTVSS
VL: EIVLTQSPATLSLSPGERATLSCRASKNVSTSGYSYMHWYQQKPGQAPRLLIYLASNLESGIPPRFSGSGYGTDFTLTINNIESEDAAYYFCQHSRELPFTFGQGTKVEIKR
In experiment [1], B4 had a Kd of 1850 pM, a koff of 0.000368 s⁻¹ and a kon of 199000 M⁻¹ s⁻¹. The molecule also gave an EC50 in experiment [2] of 433 pM. Further, the “IC50 (nM) in the assay showing the inhibition of enzyme activity in MDA-MB-231 cell” value in experiment [3] came out at 10.2 nM.
